{"source": "paper doi:10.1101/2023.05.25.542299", "key": {"[1]": {"biological_target": "45-mer peptide of IKKβ (as used in the CD experiments)", "experiment": "circular dichroism (spectra and thermal denaturation with and without ligand); 10 µM NEMO protein with or without equimolar IKKβ 45-mer peptide, incubated 1 h at room temperature; 20 mM sodium phosphate, 500 mM NaCl, pH 7.4; spectra at 25 °C, melt 10 to 70 °C at 222 nm"}, "[2]": {"biological_target": "FITC-labeled 45-mer peptide derived from the C-terminal region of IKKβ", "experiment": "fluorescence polarisation; fluorescence anisotropy binding assay with the FITC-labeled IKKβ 45-mer peptide and NEMO proteins; conditions not told (refs 13, 23)"}}, "data": [{"substance": "NEMO 1–419 OPTN-IVD, bacterially expressed (from UniProt Q9Y6K9 1-419) (natural protein)", "values": [{"measurement": "increase in Tm with equimolar peptide", "setting": "[1]", "value": 5, "unit": "°C"}, {"measurement": "Kd", "setting": "[2]", "value": 33, "unit": "nM"}]}, {"substance": "full-length WT NEMO (aa 1–419), bacterially expressed (from UniProt Q9Y6K9 1-419) (natural protein)", "values": [{"measurement": "increase in Tm with equimolar peptide", "setting": "[1]", "value": 3, "unit": "°C"}, {"measurement": "Kd", "setting": "[2]", "value": 4.7, "unit": "nM"}]}]}
